Data reported in patent US20090166224A1.

Legend:
[1] = molecular target: Pregnancy zone protein in fucosidase-treated serum (human) (UniProt P20742); experiment: fucosidase-treated serum on M-LAC column, displacer fraction, LC-MS/MS; smaller rank = more abundant
[2] = molecular target: Pregnancy zone protein in fucosidase-treated serum (human) (UniProt P20742); experiment: fucosidase-treated serum on M-LAC column, displacer fraction, extracted ion chromatogram of peptide … (so in the source)

Chain of Pregnancy zone protein in fucosidase-treated serum (human) (P20742 26-1482 limits assumed): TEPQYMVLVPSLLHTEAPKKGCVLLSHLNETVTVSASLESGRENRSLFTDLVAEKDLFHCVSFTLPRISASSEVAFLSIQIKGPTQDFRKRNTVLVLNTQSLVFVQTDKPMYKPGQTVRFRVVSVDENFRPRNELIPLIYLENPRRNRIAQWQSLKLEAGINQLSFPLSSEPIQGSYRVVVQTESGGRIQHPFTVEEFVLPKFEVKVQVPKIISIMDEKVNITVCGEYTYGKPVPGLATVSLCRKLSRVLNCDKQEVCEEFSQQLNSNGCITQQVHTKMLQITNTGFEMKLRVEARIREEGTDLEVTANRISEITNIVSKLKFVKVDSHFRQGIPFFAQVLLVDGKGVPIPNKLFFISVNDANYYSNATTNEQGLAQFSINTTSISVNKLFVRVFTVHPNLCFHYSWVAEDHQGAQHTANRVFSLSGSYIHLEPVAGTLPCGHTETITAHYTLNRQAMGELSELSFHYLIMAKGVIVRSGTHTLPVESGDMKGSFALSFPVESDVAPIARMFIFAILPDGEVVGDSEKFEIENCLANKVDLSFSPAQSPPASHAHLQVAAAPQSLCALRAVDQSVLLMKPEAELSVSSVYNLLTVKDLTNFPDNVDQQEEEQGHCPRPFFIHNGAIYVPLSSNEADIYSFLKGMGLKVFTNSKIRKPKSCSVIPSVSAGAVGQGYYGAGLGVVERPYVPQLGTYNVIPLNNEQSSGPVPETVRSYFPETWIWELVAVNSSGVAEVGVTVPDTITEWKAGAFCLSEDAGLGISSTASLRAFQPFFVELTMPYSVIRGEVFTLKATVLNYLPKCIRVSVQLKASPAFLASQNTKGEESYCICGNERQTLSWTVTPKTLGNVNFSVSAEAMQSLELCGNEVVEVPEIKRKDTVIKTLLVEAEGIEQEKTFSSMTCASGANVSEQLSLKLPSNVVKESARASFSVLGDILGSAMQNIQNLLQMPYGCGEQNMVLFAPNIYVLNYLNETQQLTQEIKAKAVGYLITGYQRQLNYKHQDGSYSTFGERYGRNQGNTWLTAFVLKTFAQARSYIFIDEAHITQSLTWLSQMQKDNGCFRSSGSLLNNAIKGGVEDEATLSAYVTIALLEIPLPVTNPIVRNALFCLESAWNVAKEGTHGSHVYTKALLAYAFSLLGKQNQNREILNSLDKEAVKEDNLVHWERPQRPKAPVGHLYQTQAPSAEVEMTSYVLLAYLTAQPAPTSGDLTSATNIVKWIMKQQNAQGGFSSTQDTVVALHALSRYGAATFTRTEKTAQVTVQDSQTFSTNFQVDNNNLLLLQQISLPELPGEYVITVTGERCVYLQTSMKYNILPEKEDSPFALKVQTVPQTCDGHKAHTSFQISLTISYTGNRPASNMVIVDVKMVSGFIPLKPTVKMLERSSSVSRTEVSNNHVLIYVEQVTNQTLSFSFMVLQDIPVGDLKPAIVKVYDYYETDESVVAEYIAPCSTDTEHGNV

SEQUEST rank in displacer fraction [1]: 6
peptide peak area in displacer fraction [2]: 0 counts
B1: Jacalin lectin, agarose-bound (protein)
chain 1: GKAFDDGAFTGIREINLSYNKETAIGDFQVVYDLNGSPYVGQNHKSFITGFTPVKISLDFPSEYIMEVSGYTGNVSGYVVVRSLTFKTNKKTYGPYGVTSGTPFNLPIENGLIVGFKGSIGYWLDYFSMYLSL
chain 2: NEQSGKSQTVIVGSWGAKVS
modifications: immobilized on agarose
